# Positions count from the first letter of the chain named.
# B1: Antibody R012 (antibody, V domains shown)
# VH: SKSVEESGGRLVTPGTPLTLTCTVSGFSLSTYAMSWVRQAPGKGLEYIGIISGRGTTYYASWLKGRFTISKTSTTVDLKITSPTTEDTATYFCARDAGISDVYTGYFNLWGQGTLVTVSS
# VL: QPVLAQLPSASAALGASAKLTCTLSSAHRTYTIAWYQQQQGEAPRYLMMLKSDGSYTKGTGVPDRFSGSSSGADRYLIISSVQAADEADYYCGADDSGGYVFGGGTQLTVTG
# notes: Rabbit monoclonal antibody from phage display; also called Nectin-4 rabbit monoclonal antibody R012; rabbit antibody R012
# B2: Antibody R036 (antibody, V domains shown)
# VH: SQSVEESGGRLVTPGTPLTLTCTVSGFSLSSYAMSWVRQAPGKGLEYIGIIGGRGTTYYAIWAKGRFTISKTSTTVDLKITSPTTEDTATYFCARDAGTTYVGTTYVATGYFNLWGQGTLVTVSS
# VL: B1 VL with A5T, L7P, R29K, M49I, K58R, A85D
# notes: Rabbit monoclonal antibody from phage display; also called Nectin-4 rabbit monoclonal antibody R036; rabbit antibody R036
# B3: Antibody MM11 (antibody, mouse IgG1, kappa, V domains shown)
# VH: DVQLQESGPGLVKPSQSLSLTCSVTGYSITSNFYWNWIRQFPGNRLEWMGYISYDGSNNYNPSLKNRISISRDTSKNQFFLKLNSVTTEDTATYYCVRADYWGQGTLVTVSA
# VL: DTVMTQTPLSLPVSLGDQASISCRSSQSLESSDGHAYLNWYLQKPGQSPQLLIYRVSNRFSGVLHRFSGSGSGTDFTLKISRVEAEDLGVYFCLQFTHVPFTFGSGTKLEIKR
# notes: Mouse monoclonal antibody from hybridoma; also called Nectin-4 mouse monoclonal antibody MM11; mouse antibody MM11
# Molecular target: T1, Nectin-like-2 (UniProt Q9BY67 45-374, limits assumed)
# T1 construct: Bought recombinant protein; also called CADM1; IgSF4
# T1 sequence (looked up): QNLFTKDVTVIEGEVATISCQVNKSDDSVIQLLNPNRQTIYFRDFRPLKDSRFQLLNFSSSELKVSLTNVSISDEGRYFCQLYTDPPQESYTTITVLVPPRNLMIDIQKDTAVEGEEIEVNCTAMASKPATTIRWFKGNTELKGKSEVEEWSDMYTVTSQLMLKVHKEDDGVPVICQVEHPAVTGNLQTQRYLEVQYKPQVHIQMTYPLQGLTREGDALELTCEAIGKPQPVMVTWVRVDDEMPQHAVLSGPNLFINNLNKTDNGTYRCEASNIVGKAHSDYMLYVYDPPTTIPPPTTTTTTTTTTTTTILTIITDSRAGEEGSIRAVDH
# Assay: ELISA, coated antigen, antibody at 10000 ng/ml
# Description: (§1) Coating: Nectin-1, Nectin-2, Nectin-3, Nectin-4, Nectin-like-1, Nectin-like-2, Nectin-like-3, Nectin-like-4, and Nectin-like-5 were diluted to 5 μg/ml in coating buffer (carbonate buffer, pH 9.6) respectively. A 96-well plate was coat with 100 μl per well and incubated overnight at 2-8° C.;
# (§2) Sample loading: The plate was taken out, patted dry, and washed twice with 200 μl/well of PBST, then patted dry. The Nectin-4 antibodies prepared in Example 1 (antibody MM11, antibody R012, and antibody R036) were diluted with 1% BSA/PBST to concentrations of 10 μg/ml, 1 μg/ml, 100 ng/ml, and 10 ng/ml, respectively. 1% BSA/PBST solution for dilution was set as a blank control. 100 μl per well was added to the 96-well plate, and incubated at room temperature for 2 hours;
# (§3) Reaction termination and plate reading: 100 μl/well of 1 mol/L H3PO4 was added to terminate the reaction and the plated was read. The absorbances of wells in the plate at 450 nm with 650 nm as reference wavelength were read and recorded as OD_{450 nm-650 nm}.
row,Binder,OD detection value
1,B1,0.009 OD450 nm-650 nm
2,B2,0.008 OD450 nm-650 nm
3,B3,0.005 OD450 nm-650 nm

# Molecular target: T2, Nectin-like-3 (UniProt Q8N3J6 25-367, limits assumed)
# T2 construct: Bought recombinant protein; also called CADM2; IgSF4D
# T2 sequence (looked up): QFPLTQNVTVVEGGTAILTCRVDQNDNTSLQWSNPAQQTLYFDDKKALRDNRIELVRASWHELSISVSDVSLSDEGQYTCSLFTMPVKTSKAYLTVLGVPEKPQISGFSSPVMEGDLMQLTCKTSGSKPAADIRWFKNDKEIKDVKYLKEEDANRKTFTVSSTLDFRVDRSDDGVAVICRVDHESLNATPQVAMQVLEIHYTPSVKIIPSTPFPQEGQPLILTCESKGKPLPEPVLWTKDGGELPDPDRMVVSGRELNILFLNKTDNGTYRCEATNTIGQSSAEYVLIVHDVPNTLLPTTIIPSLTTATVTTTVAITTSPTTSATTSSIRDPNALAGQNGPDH
# Assay: ELISA, coated antigen, antibody at 10000 ng/ml
# Description: as §1, §2, §3
row,Binder,OD detection value
1,B1,0.009 OD450 nm-650 nm
2,B2,0.008 OD450 nm-650 nm
3,B3,0.032 OD450 nm-650 nm

# Molecular target: T3, Nectin-like-4 (UniProt Q8NFZ8 21-324, limits assumed)
# T3 construct: Bought recombinant protein; also called CADM4; IgSF4C
# T3 sequence (looked up): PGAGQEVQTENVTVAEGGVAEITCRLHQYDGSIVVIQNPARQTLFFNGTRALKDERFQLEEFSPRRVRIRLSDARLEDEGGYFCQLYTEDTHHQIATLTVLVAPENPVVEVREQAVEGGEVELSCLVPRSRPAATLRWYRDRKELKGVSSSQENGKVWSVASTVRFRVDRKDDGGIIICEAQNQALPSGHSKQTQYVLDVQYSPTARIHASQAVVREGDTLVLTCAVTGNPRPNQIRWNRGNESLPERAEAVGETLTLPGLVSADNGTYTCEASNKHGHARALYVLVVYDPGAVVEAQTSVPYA
# Assay: ELISA, coated antigen, antibody at 10000 ng/ml
# Description: as §1, §2, §3
row,Binder,OD detection value
1,B1,0.007 OD450 nm-650 nm
2,B2,0.006 OD450 nm-650 nm
3,B3,0.009 OD450 nm-650 nm

# Molecular target: T4, recombinant human Nectin-4 protein (human, UniProt Q96NY8 32-349)
# T4 construct: Prepared in-house (Jiangsu Mabwell) by transient transfection of CHO cells; also called PVRL-4; PRR-4
# T4 sequence: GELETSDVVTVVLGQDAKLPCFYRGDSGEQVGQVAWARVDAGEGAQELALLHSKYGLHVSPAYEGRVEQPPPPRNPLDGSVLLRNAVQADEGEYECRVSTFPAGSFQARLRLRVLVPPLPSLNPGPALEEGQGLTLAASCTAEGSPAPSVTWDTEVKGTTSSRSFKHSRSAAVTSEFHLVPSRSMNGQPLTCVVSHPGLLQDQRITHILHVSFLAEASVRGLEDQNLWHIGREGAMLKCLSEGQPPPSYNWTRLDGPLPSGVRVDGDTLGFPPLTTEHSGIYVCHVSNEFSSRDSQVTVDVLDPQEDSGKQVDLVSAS
# Assay: ELISA, coated antigen, antibody at 10000 ng/ml
# Description: as §1, §2, §3
row,Binder,OD detection value
1,B1,1.51 OD450 nm-650 nm
2,B2,1.63 OD450 nm-650 nm
3,B3,1.97 OD450 nm-650 nm

# Molecular target: T5, Nectin-1 (UniProt Q15223 31-334, limits assumed)
# T5 construct: Bought recombinant protein; also called CD111; PVRL-1
# T5 sequence (looked up): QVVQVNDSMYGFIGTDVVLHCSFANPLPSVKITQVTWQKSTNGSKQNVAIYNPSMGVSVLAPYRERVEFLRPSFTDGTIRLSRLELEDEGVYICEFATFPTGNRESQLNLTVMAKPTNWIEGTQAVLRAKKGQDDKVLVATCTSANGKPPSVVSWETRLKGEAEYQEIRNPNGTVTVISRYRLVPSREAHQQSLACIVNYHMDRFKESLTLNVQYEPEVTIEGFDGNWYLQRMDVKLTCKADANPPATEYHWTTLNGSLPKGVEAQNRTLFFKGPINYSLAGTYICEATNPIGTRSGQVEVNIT
# Assay: ELISA, coated antigen, antibody at 10000 ng/ml
# Description: as §1, §2, §3
row,Binder,OD detection value
1,B1,0.008 OD450 nm-650 nm
2,B2,0.006 OD450 nm-650 nm
3,B3,0.012 OD450 nm-650 nm

# Molecular target: T6, Nectin-2 (UniProt Q92692 32-360, limits assumed)
# T6 construct: Bought recombinant protein; also called CD112; PVRL-2
# T6 sequence (looked up): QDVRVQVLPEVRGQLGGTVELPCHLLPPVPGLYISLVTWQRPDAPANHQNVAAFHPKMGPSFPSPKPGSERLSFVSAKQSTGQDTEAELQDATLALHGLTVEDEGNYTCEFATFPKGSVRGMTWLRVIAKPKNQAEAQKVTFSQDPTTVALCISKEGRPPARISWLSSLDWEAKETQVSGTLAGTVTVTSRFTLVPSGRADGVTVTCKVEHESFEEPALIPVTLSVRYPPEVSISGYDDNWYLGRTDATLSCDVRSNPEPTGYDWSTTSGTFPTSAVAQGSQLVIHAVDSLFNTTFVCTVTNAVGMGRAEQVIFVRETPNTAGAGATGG
# Assay: ELISA, coated antigen, antibody at 10000 ng/ml
# Description: as §1, §2, §3
row,Binder,OD detection value
1,B1,0.008 OD450 nm-650 nm
2,B2,0.007 OD450 nm-650 nm
3,B3,0.017 OD450 nm-650 nm

# Molecular target: T7, Nectin-3 (UniProt Q9NQS3 58-404, limits assumed)
# T7 construct: Bought recombinant protein; also called CD113; PVRL-3
# Assay: ELISA, coated antigen, antibody at 10000 ng/ml
# Description: as §1, §2, §3
# T7 sequence (Q9NQS3 58-404 limits assumed): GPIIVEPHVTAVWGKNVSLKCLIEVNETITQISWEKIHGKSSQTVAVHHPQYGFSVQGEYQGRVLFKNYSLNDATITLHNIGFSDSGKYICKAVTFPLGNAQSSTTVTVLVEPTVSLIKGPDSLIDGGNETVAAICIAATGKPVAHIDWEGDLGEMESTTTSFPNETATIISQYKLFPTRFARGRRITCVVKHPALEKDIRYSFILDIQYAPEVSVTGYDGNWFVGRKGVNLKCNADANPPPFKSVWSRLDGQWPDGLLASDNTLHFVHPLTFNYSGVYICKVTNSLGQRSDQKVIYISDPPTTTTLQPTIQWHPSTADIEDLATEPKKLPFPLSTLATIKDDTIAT
row,Binder,OD detection value
1,B1,0.007 OD450 nm-650 nm
2,B2,0.008 OD450 nm-650 nm
3,B3,0.006 OD450 nm-650 nm

# — patent US20260265354A1 (JIANGSU MABWELL HEALTH PHARMACEUTICAL R AND D, published 2026)
